Measurements taken from patent publication US20200062856A1 (XDCEXPLORER SHANGHAI, published 2020).

Experiments:
[1] = biological target: human TPBG protein, full-length, on the cell surface (human) (UniProt Q13641); test: FACS, HEK293 clone 293F-hTPBG 4H12
[2] = biological target: human TPBG protein, full-length, on the cell surface (human) (UniProt Q13641); test: FACS, HEK293 clone 293F-hTPBG 4B9
[3] = biological target: human TPBG protein, full-length, on the cell surface (human) (UniProt Q13641); test: FACS, HEK293 clone 293F-hTPBG 5A11
[4] = biological target: human TPBG protein, full-length, on the cell surface (human) (UniProt Q13641); test: FACS, HEK293 clone 293F-hTPBG 4G1
[5] = biological target: human TPBG protein, full-length, on the cell surface (human) (UniProt Q13641); test: FACS, HEK293 clone 293F-hTPBG 4C3
[6] = biological target: human TPBG protein, full-length, on the cell surface (human) (UniProt Q13641); test: FACS, HEK293 clone 293F-hTPBG 4A8
[7] = biological target: human TPBG protein, full-length, on the cell surface (human) (UniProt Q13641); test: FACS, CHOk1-hTPBG 3A2F1 cells
[8] = biological target: human TPBG protein, full-length, on the cell surface (human) (UniProt Q13641); test: FACS, HEK293 clone 293F-hTPBG 4C5
[9] = biological target: human TPBG protein, full-length, on the cell surface (human) (UniProt Q13641); test: FACS, HEK293 clone 293F-hTPBG 5A9
[10] = biological target: human TPBG protein, full-length, on the cell surface (human) (UniProt Q13641); test: FACS, HEK293 clone 293F-hTPBG 5D4
[11] = biological target: human TPBG protein, full-length, on the cell surface (human) (UniProt Q13641); test: FACS, HEK293 clone 293F-hTPBG 5G11
[12] = biological target: human TPBG protein, full-length, on the cell surface (human) (UniProt Q13641); test: FACS, HEK293 clone 293F-hTPBG 5E6
[13] = biological target: human TPBG protein, full-length, on the cell surface (human) (UniProt Q13641); test: FACS, HEK293 clone 293F-hTPBG 5C12
[14] = biological target: human TPBG protein, full-length, on the cell surface (human) (UniProt Q13641); test: FACS, HEK293 clone 293F-hTPBG 4E1 (NO 8)
[15] = biological target: mouse TPBG protein, full-length, on the cell surface (mouse) (UniProt Q9Z0L0); test: FACS, CHOk1-mTPBG 3A3 cells
[16] = biological target: human TPBG protein, full-length, on the cell surface (human) (UniProt Q13641); test: FACS, HEK293 clone 293F-hTPBG 4G6
[17] = biological target: human TPBG protein, full-length, on the cell surface (human) (UniProt Q13641); test: FACS, HEK293 clone 293F-hTPBG 5H6
[18] = biological target: human TPBG protein, full-length, on the cell surface (human) (UniProt Q13641); test: FACS, HEK293 clone 293F-hTPBG 4E1
[19] = biological target: cynomolgus TPBG protein, full-length, on the cell surface (cynomolgus) (UniProt Q4R8Y9); test: FACS, CHOk1-cTPBG 3F13G4 cells
[20] = biological target: human TPBG protein, full-length, on the cell surface (human) (UniProt Q13641); test: FACS, HEK293 clone 293F-hTPBG 5G8
[21] = biological target: human TPBG protein, full-length, on the cell surface (human) (UniProt Q13641); test: FACS, HEK293 clone 293F-hTPBG 5E5
[22] = biological target: human TPBG protein, full-length, on the cell surface (human) (UniProt Q13641); test: FACS, HEK293 clone 293F-hTPBG 4A9
[23] = biological target: human TPBG protein, full-length, on the cell surface (human) (UniProt Q13641); test: FACS, HEK293 clone 293F-hTPBG 4F9
[24] = biological target: T1, human TPBG antigen immobilized on a CM5 chip (human, UniProt Q13641 32-355, limits assumed); test: SPR (Biacore), human TPBG antigen immobilized on CM5 chip
T1 sequence (looked up): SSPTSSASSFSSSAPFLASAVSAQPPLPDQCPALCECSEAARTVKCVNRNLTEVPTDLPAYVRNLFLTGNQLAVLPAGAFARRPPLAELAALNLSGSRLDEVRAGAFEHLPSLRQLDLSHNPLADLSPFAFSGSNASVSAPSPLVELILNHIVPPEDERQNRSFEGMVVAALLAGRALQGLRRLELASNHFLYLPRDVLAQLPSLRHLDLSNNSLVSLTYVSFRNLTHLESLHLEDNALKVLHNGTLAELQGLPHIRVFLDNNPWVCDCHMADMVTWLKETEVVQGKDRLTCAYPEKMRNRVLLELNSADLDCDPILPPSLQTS
Method: To assess the binding specificity and affinity of the humanized anti-TPBG antibody, Biacore analysis was performed using human TPBG antigen immobilized on a CM5 chip. Biacore technique utilizes the change in the refractive index of surface layer after antibody binding to the TPBG antigen immobilized on the surface layer. The binding was determined by surface plasmon resonance (SPR) through detecting the laser refracted from the surface. Non-specific and specific interactions were distinguished by analysis of signal kinetics binding rate and dissociation rate. Chimeric antibodies 12B12 and 28D4 were used as controls.

[25] = biological target: T2, mouse TPBG protein, full-length, on the cell surface (mouse, UniProt Q9Z0L0 32-426); test: FACS on CHO-k1 cells with surface-expressed mouse TPBG, fluorescent secondary antibody, mean fluorescence intensity
T2 construct: whole, on cells; also called mTPBG; CHOk1-mTPBG
T2 sequence (looked up): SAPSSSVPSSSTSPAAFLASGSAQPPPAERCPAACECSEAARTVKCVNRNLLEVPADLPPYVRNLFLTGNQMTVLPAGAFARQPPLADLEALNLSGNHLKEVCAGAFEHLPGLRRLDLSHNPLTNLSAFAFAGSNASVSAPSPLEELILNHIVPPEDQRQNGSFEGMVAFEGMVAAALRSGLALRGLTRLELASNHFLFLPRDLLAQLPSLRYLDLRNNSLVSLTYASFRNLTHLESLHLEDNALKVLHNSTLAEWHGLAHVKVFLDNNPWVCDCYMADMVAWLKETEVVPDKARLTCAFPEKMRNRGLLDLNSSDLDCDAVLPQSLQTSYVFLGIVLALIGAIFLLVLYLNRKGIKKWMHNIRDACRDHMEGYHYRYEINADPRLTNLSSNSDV

[26] = biological target: T3, cynomolgus TPBG protein, full-length, on the cell surface (cynomolgus, UniProt Q4R8Y9 35-420); test: FACS on CHOK1-cTPBG cells
T3 construct: whole, on cells; also called cTPBG; CHOk1-cTPBG
T3 sequence (looked up): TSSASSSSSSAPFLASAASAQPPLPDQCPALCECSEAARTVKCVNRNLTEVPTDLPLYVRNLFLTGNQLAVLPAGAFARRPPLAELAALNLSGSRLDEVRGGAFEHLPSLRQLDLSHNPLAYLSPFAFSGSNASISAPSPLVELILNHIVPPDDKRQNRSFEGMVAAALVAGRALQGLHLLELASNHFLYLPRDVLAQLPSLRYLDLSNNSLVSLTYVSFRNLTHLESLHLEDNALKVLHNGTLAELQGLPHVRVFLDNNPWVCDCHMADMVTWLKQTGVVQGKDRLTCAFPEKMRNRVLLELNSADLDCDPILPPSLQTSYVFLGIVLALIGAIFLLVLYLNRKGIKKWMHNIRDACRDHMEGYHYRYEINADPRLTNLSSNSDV

human TPBG-hFc protein = biological target: T4, human TPBG-hFc protein (human, UniProt Q13641 32-355); test: ELISA, coated human TPBG-hFc
T4 construct: range 32-355; Expressed in HEK293 cells, purified on protein A; also called immunogen A; hFc tagged TPBG protein; not shown: human IgG Fc fragment of the pCpC vector
T4 sequence (looked up): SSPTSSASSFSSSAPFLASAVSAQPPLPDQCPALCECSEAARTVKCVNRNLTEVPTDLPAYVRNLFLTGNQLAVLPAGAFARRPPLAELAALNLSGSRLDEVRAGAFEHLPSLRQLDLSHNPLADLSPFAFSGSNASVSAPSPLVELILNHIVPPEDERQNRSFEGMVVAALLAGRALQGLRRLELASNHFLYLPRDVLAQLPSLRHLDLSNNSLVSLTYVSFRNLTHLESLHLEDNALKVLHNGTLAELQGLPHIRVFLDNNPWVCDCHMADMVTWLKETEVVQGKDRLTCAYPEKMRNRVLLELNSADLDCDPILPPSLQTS
Outline: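 Plates coated overnight at 4° C. with human TPBG-hFc at 1.0 μg/mL, blocked with PBS/0.01% Tween 20/1% BSA, then purified humanized antibody variants bound 2 h at 37° C. HRP-labeled secondary antibody (2 h, 37° C.) with TMB detection, acid stop, A450 read. EC50 derived from OD450 values.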

[27] = biological target: T5, human TPBG protein, full-length, on the cell surface (human, UniProt Q13641 32-420); test: FACS on CHOK1-hTPBG cells
T5 construct: whole, on cells; Transfected HEK293 (293F-hTPBG clones) and CHO-k1 (CHOk1-hTPBG 3A2F1) cells; also used here for endogenous TPBG on the TPBG-positive tumour lines NCI-H1568, NCI-H1975 and MDA-MB-468 in the killing assays; also called hTPBG; 5T4
T5 sequence (looked up): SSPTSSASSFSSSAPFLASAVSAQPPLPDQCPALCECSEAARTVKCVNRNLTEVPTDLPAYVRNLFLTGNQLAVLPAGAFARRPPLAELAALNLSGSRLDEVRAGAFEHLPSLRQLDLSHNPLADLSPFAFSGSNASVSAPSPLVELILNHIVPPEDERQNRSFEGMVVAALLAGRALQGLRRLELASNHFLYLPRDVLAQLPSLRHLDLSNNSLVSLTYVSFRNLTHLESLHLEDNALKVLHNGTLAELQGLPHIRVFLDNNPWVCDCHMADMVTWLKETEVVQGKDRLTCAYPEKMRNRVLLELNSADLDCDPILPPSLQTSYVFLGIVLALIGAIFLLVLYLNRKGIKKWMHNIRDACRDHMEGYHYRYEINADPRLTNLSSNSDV

[28] = biological target: T5, human TPBG protein, full-length, on the …; test: FACS on CHOk1-hTPBG cells
Text: (§1) The stable cell lines CHOk1-hTPBG, CHOk1-cTPBG, CHOk1-mTPBG (i.e. the CHOk1-hTPBG 3A2F1, CHOk1-cTPBG 3F13G4 and CHOk1-mTPBG 3A3 shown in Table 6) and CHO-k1 cells were expanded to a 90% of confluency in T-75 cell culture flasks, and the culture medium were removed. Cells were then rinsed twice with HBSS buffer (Hanks Balanced Salt Solution, purchased from Invitrogen) and […] with enzyme-free cell dissociation buffer (Versene solution was purchased from Life technology) and harvested. Harvested cells were rinsed with HBSS buffer twice and counted before diluting with HBSS buffer to 2×10⁶ cells/mL, and 10% goat serum blocking buffer was then added, wherein the percentage is the mass percentage. Cells were incubated on ice for 30 min, and then washed twice with HBSS buffer by centrifugation. […] The plate was washed with the FACS buffer twice by centrifugation, and 100 μL per well of fluorescence (Alexa 488) labeled secondary antibody (purchased from Invitrogen) was then added and incubated on ice for 1 h. […] The results were measured and analyzed by FACS (FACS Calibur, purchased from BD). The data was analyzed by software (CellQuest) to obtain the mean fluorescence intensity (MFI) of the cells, follow by calculating EC50 value by software (GraphPad Prism) analysis and data fitting.

[29] = biological target: T3, cynomolgus TPBG protein, full-length, …; test: FACS on CHOk1-cTPBG cells
Text: as §1

[30] = biological target: T2, mouse TPBG protein, full-length, on the …; test: FACS on CHOk1-mTPBG cells
Text: as §1

commercially available TPBG antibody (purchased from Sigma, Lot NO: SAB1404485)
Cellular MFI [1]: 9.5 MFI
Cellular MFI [2]: 126 MFI
Cellular MFI [3]: 166 MFI
Cellular MFI [4]: 131 MFI
Cellular MFI [5]: 27.2 MFI
Cellular MFI [6]: 33.4 MFI
Cellular MFI [7]: 798 MFI
Cellular MFI [8]: 172 MFI
Cellular MFI [9]: 53.2 MFI
Cellular MFI [10]: 70.6 MFI
Cellular MFI [11]: 11.3 MFI
Cellular MFI [12]: 13.2 MFI
Cellular MFI [13]: 75.4 MFI
Cellular MFI [14]: 91.8 MFI
Cellular MFI [15]: 135 MFI
Cellular MFI [16]: 31.8 MFI
Cellular MFI [17]: 36.4 MFI
Cellular MFI [18]: 145 MFI
Cellular MFI [19]: 198 MFI
Cellular MFI [20]: 168 MFI
Cellular MFI [21]: 280 MFI
Cellular MFI [22]: 204 MFI
Cellular MFI [23]: 47.7 MFI

B1: Humanized antibody 12B12-15 (antibody, V domains shown)
VH: EVQLVESGGGVVQPGRSLRLSCAASGFTFSNFGMHWVRQAPGKGLEWVAYISSGSTSFYYADTVKGRFTISRDNSKNTLYLQMNSLRAEDTAVYYCARTNSLLRGFFDAWGQGTTVTVSS
VL: DIVLTQTPLSLSVTPGQPASISCRASQSVSSSSYTYLHWYLQKPGQPPQLLIKSASNLESGVPDRFSGSGSGTDFTLKISRVEAEDVGVYYCQHSWEIPLTFGQGTKLEIK
notes: also called h12B12-15
Kd [24]: < 5.66 pM
koff [24]: < 1e-05 s⁻¹
kon [24]: 1.77e+06 M⁻¹ s⁻¹
binding result [25]: no binding (tested: 100 nM)
EC50 [26]: 870 pM
EC50 (human TPBG-hFc protein): 193 pM
EC50 [27]: 370 pM

B2: mouse anti-TPBG monoclonal antibody 12B12C7C3 (antibody, V domains shown)
VH: DVQLVESGGGLVQPGGSRKLSCAASGFTFSNFGMHWVRQAPEKGLEWVAYISSGSTSFYYADTVKGRFTISRDNPKNTLFLQMTSLRSEDTAMYYCSRTNSLLRGFFDAWGAGTTVTVSS
VL: DIVLTQSPASLAVSLGQRATISCRASQSVSSSSYTYLHWYQQKPGQPPKLLIKSASNLESGVPARFSGTGSGTDFTLNIHPVEEEDTATYYCQHSWEIPLTFGAGTKLELK
notes: Mouse antibody purified from hybridoma supernatant; also called 12B12C7C3 (12B12 for short)
EC50 [28]: 650 pM
EC50 [29]: 590 pM
binding result [30]: no binding
